According to US20110070235A1:

Biological target: M2e
Assay: peptide ELISA, mAb 5 ug/mL

TCN-031 (23K12) (antibody)
ELISA A450: 0.43

chimeric mouse V-region/human IgG1 kappa 14C2 antibody
ELISA A450: 3.98
